Test [1] addresses mitochondrial mitofusins. In words: cell-based or functional assay.
Test [2] concerns the target mitochondrial mitofusins. In words: cell-based or functional assay. This is another data set of the same source.

Where two headings read alike, the source gives them in different places.

For TAT-367-384Gly (peptide), the EC50 of mitochondrial elongation (enhanced fusion), mitochondrial aspect ratio in MEFs in test [1] stood at 280 nM. As for TAT-398-418Gly (peptide), in test [1], the EC50 of mitochondrial shortening (suppressed fusion), mitochondrial aspect ratio in MEFs came to 250 nM. On to GIMDSLHMAARGGYGRKKRRQRRR [GoFuse-C fusion construct], for which, in test [2], the EC50 of mitochondrial elongation (enhanced fusion), mitochondrial aspect ratio in MEFs was 389 nM. Take GELLAQDYKLRGGYGRKKRRQRRR [TetherX-C fusion construct]: the EC50 of mitochondrial shortening (suppressed fusion), mitochondrial aspect ratio in MEFs in test [2] amounted to 171 nM.
